Experimental data taken from patent publication US20240115667A1 (priority 2020, published 2024).
“Also recorded” adds a separate entry of the source.

Assays:
SARS-CoV-2 [1] = type: cell-based; conditions: 400 μg/ml lactoferrin, 48 h after infection
SARS-CoV-2 [2] = test system: SARS-CoV-2

Molecule | Decrease of N-protein RNA copies (SARS-CoV-2 [1]) | Inhibition of SARS-CoV-2 infection in vitro (SARS-CoV-2 [2]) | Reduction of virus-induced cytotoxicity (SARS-CoV-2 [2]; MOI 0.3)
lactoferrin: lactoferrin from human milk; iron-binding ~80 kDa glycosylated protein (protein, UniProt P02788 20-710, looked up) Lactotransferrin: GRRRSVQWCAVSQPEATKCFQWQRNMRKVRGPPVSCIKRDSPIQCIQAIAENRADAVTLDGGFIYEAGLAPYKLRPVAAEVYGTERQPRTHYYAVAVVKKGGSFQLNELQGLKSCHTGLRRTAGWNVPIGTLRPFLNWTGPPEPIEAAVARFFSASCVPGADKGQFPNLCRLCAGTGENKCAFSSQEPYFSYSGAFKCLRDGAGDVAFIRESTVFEDLSDEAERDEYELLCPDNTRKPVDKFKDCHLARVPSHAVVARSVNGKEDAIWNLLRQAQEKFGKDKSPKFQLFGSPSGQKDLLFKDSAIGFSRVPPRIDSGLYLGSGYFTAIQNLRKSEEEVAARRARVVWCAVGEQELRKCNQWSGLSEGSVTCSSASTTEDCIALVLKGEADAMSLDGGYVYTAGKCGLVPVLAENYKSQQSSDPDPNCVDRPVEGYLAVAVVRRSDTSLTWNSVKGKKSCHTAVDRTAGWNIPMGLLFNQTGSCKFDEYFSQSCAPGSDPRSNLCALCIGDEQGENKCVPNSNERYYGYTGAFRCLAENAGDVAFVKDVTVLQNTDGNNNEAWAKDLKLADFALLCLDGKRKPVTEARSCHLAMAPNHAVVSRMDKVERLKQVLLHQQAKFGRNGSDCPDKFCLFQSETKNLLFNDNTECLARLHGKTTYEKYLGPQYVAGITNLKKCSTSPLLEACEFLRK | 28.0% |  | 
Unsaturated iron lactoferrin: lactoferrin that has been depleted of iron; also termed reduced iron lactoferrin or apolactoferrin (protein, UniProt P02788 20-710, looked up, iron-depleted apolactoferrin) Lactotransferrin: GRRRSVQWCAVSQPEATKCFQWQRNMRKVRGPPVSCIKRDSPIQCIQAIAENRADAVTLDGGFIYEAGLAPYKLRPVAAEVYGTERQPRTHYYAVAVVKKGGSFQLNELQGLKSCHTGLRRTAGWNVPIGTLRPFLNWTGPPEPIEAAVARFFSASCVPGADKGQFPNLCRLCAGTGENKCAFSSQEPYFSYSGAFKCLRDGAGDVAFIRESTVFEDLSDEAERDEYELLCPDNTRKPVDKFKDCHLARVPSHAVVARSVNGKEDAIWNLLRQAQEKFGKDKSPKFQLFGSPSGQKDLLFKDSAIGFSRVPPRIDSGLYLGSGYFTAIQNLRKSEEEVAARRARVVWCAVGEQELRKCNQWSGLSEGSVTCSSASTTEDCIALVLKGEADAMSLDGGYVYTAGKCGLVPVLAENYKSQQSSDPDPNCVDRPVEGYLAVAVVRRSDTSLTWNSVKGKKSCHTAVDRTAGWNIPMGLLFNQTGSCKFDEYFSQSCAPGSDPRSNLCALCIGDEQGENKCVPNSNERYYGYTGAFRCLAENAGDVAFVKDVTVLQNTDGNNNEAWAKDLKLADFALLCLDGKRKPVTEARSCHLAMAPNHAVVSRMDKVERLKQVLLHQQAKFGRNGSDCPDKFCLFQSETKNLLFNDNTECLARLHGKTTYEKYLGPQYVAGITNLKKCSTSPLLEACEFLRK |  | directly inhibited SARS-CoV-2 infection more effectively compared to hololactoferrin; also recorded: inhibited SARS-CoV-2 infection when administered alone | more effective than recombinant lactoferrin
